Data as given in the Human Domainome abundance scans (Beltran et al. 2025).
± gives the uncertainty stated by the source.

test: abundance fitness (aPCA) (normalised: wild type 0, dead -1); higher = more abundant; growth selection in yeast, the domain comes from the species named; details: Homo sapiens

| Substance | abundance fitness |
| --- | --- |
| Lipoamide acyltransferase component of branched-chain alpha-keto acid dehydrogenase complex, mitochondrial R199C, P11182 | -0.054 ± 0.065 |
| Lipoamide acyltransferase component of branched-chain alpha-keto acid dehydrogenase complex, mitochondrial R199E, P11182 | 0.088 ± 0.048 |
| Lipoamide acyltransferase component of branched-chain alpha-keto acid dehydrogenase complex, mitochondrial R199G, P11182 | -0.204 ± 0.036 |
| Lipoamide acyltransferase component of branched-chain alpha-keto acid dehydrogenase complex, mitochondrial R199I, P11182 | -0.142 ± 0.09 |
| Lipoamide acyltransferase component of branched-chain alpha-keto acid dehydrogenase complex, mitochondrial R199K, P11182 | -0.033 ± 0.051 |
| Lipoamide acyltransferase component of branched-chain alpha-keto acid dehydrogenase complex, mitochondrial R199L, P11182 | -0.173 ± 0.04 |
| Lipoamide acyltransferase component of branched-chain alpha-keto acid dehydrogenase complex, mitochondrial R199M, P11182 | -0.088 ± 0.088 |
| Lipoamide acyltransferase component of branched-chain alpha-keto acid dehydrogenase complex, mitochondrial R199P, P11182 | -0.784 ± 0.079 |
| Lipoamide acyltransferase component of branched-chain alpha-keto acid dehydrogenase complex, mitochondrial R199Q, P11182 | 0.045 ± 0.045 |
| Lipoamide acyltransferase component of branched-chain alpha-keto acid dehydrogenase complex, mitochondrial R199S, P11182 | -0.08 ± 0.048 |
| Lipoamide acyltransferase component of branched-chain alpha-keto acid dehydrogenase complex, mitochondrial R199T, P11182 | -0.006 ± 0.062 |
| Lipoamide acyltransferase component of branched-chain alpha-keto acid dehydrogenase complex, mitochondrial R199V, P11182 | -0.129 ± 0.044 |
| Lipoamide acyltransferase component of branched-chain alpha-keto acid dehydrogenase complex, mitochondrial R199W, P11182 | -0.117 ± 0.046 |
| Lipoamide acyltransferase component of branched-chain alpha-keto acid dehydrogenase complex, mitochondrial S189A, P11182 | -0.03 ± 0.04 |
| Lipoamide acyltransferase component of branched-chain alpha-keto acid dehydrogenase complex, mitochondrial S189C, P11182 | -0.111 ± 0.071 |
| Lipoamide acyltransferase component of branched-chain alpha-keto acid dehydrogenase complex, mitochondrial S189E, P11182 | -0.001 ± 0.042 |
| Lipoamide acyltransferase component of branched-chain alpha-keto acid dehydrogenase complex, mitochondrial S189F, P11182 | -0.343 ± 0.058 |
| Lipoamide acyltransferase component of branched-chain alpha-keto acid dehydrogenase complex, mitochondrial S189G, P11182 | -0.065 ± 0.039 |
| Lipoamide acyltransferase component of branched-chain alpha-keto acid dehydrogenase complex, mitochondrial S189K, P11182 | -0.135 ± 0.068 |
| Lipoamide acyltransferase component of branched-chain alpha-keto acid dehydrogenase complex, mitochondrial S189L, P11182 | -0.45 ± 0.046 |
| Lipoamide acyltransferase component of branched-chain alpha-keto acid dehydrogenase complex, mitochondrial S189M, P11182 | -0.264 ± 0.061 |
| Lipoamide acyltransferase component of branched-chain alpha-keto acid dehydrogenase complex, mitochondrial S189P, P11182 | -0.232 ± 0.068 |
| Lipoamide acyltransferase component of branched-chain alpha-keto acid dehydrogenase complex, mitochondrial S189Q, P11182 | -0.097 ± 0.054 |
| Lipoamide acyltransferase component of branched-chain alpha-keto acid dehydrogenase complex, mitochondrial S189R, P11182 | -0.09 ± 0.039 |

| Substance | abundance fitness |
| --- | --- |
| Lipoamide acyltransferase component of branched-chain alpha-keto acid dehydrogenase complex, mitochondrial S189T, P11182 | -0.033 ± 0.046 |
| Lipoamide acyltransferase component of branched-chain alpha-keto acid dehydrogenase complex, mitochondrial S189V, P11182 | -0.199 ± 0.043 |
| Lipoamide acyltransferase component of branched-chain alpha-keto acid dehydrogenase complex, mitochondrial S189Y, P11182 | -0.258 ± 0.19 |
| Lipoamide acyltransferase component of branched-chain alpha-keto acid dehydrogenase complex, mitochondrial S194A, P11182 | -0.564 ± 0.073 |
| Lipoamide acyltransferase component of branched-chain alpha-keto acid dehydrogenase complex, mitochondrial S194C, P11182 | -0.47 ± 0.045 |
| Lipoamide acyltransferase component of branched-chain alpha-keto acid dehydrogenase complex, mitochondrial S194E, P11182 | -0.504 ± 0.049 |
| Lipoamide acyltransferase component of branched-chain alpha-keto acid dehydrogenase complex, mitochondrial S194F, P11182 | -0.917 ± 0.088 |
| Lipoamide acyltransferase component of branched-chain alpha-keto acid dehydrogenase complex, mitochondrial S194G, P11182 | -0.319 ± 0.052 |
| Lipoamide acyltransferase component of branched-chain alpha-keto acid dehydrogenase complex, mitochondrial S194I, P11182 | -0.738 ± 0.12 |
| Lipoamide acyltransferase component of branched-chain alpha-keto acid dehydrogenase complex, mitochondrial S194K, P11182 | -0.378 ± 0.057 |
| Lipoamide acyltransferase component of branched-chain alpha-keto acid dehydrogenase complex, mitochondrial S194M, P11182 | -0.628 ± 0.082 |
| Lipoamide acyltransferase component of branched-chain alpha-keto acid dehydrogenase complex, mitochondrial S194N, P11182 | -0.287 ± 0.049 |
| Lipoamide acyltransferase component of branched-chain alpha-keto acid dehydrogenase complex, mitochondrial S194P, P11182 | -0.694 ± 0.075 |
| Lipoamide acyltransferase component of branched-chain alpha-keto acid dehydrogenase complex, mitochondrial S194R, P11182 | -0.314 ± 0.037 |
| Lipoamide acyltransferase component of branched-chain alpha-keto acid dehydrogenase complex, mitochondrial S194T, P11182 | -0.013 ± 0.06 |
| Lipoamide acyltransferase component of branched-chain alpha-keto acid dehydrogenase complex, mitochondrial S194V, P11182 | -0.864 ± 0.064 |
| Lipoamide acyltransferase component of branched-chain alpha-keto acid dehydrogenase complex, mitochondrial S194W, P11182 | -0.937 ± 0.069 |
| Lipoamide acyltransferase component of branched-chain alpha-keto acid dehydrogenase complex, mitochondrial T171A, P11182 | -0.215 ± 0.055 |
| Lipoamide acyltransferase component of branched-chain alpha-keto acid dehydrogenase complex, mitochondrial T171C, P11182 | -0.282 ± 0.063 |
| Lipoamide acyltransferase component of branched-chain alpha-keto acid dehydrogenase complex, mitochondrial T171D, P11182 | -0.035 ± 0.073 |
| Lipoamide acyltransferase component of branched-chain alpha-keto acid dehydrogenase complex, mitochondrial T171E, P11182 | -0.268 ± 0.058 |
| Lipoamide acyltransferase component of branched-chain alpha-keto acid dehydrogenase complex, mitochondrial T171F, P11182 | -0.028 ± 0.12 |
| Lipoamide acyltransferase component of branched-chain alpha-keto acid dehydrogenase complex, mitochondrial T171K, P11182 | -0.061 ± 0.069 |
| Lipoamide acyltransferase component of branched-chain alpha-keto acid dehydrogenase complex, mitochondrial T171L, P11182 | -0.632 ± 0.17 |
